For this data set, the system named is soybean plants. The experiment in a line: Herbicide tolerance of transgenic soybean T1 plants (spraying, damage degree). Type of data set: in vivo. The conditions noted are these: sprayed with tribenuron-methyl 144 g ai/ha, eight-fold field concentration. The protocol: The degree of damage caused by the herbicide was measured for each plant according to the leaf curl degree and the growth point damage degree 3 days after spraying (3 DAT), 7 days after spraying (7 DAT), 14 days after spraying (14 DAT) and 21 days after spraying (21 DAT): the case where the leaves are flat as untreated plants and the growth points are intact is defined as having a damage degree of 0%; the case where veins are locally browned, new leaves are malformed and plant growth is slow is defined as having a damage degree of 50%; and the case where veins are purple, until the whole plant is dead and the growth points are browned and dry is defined as having a damage degree of 100%. The soybean plants into which the ALT02M1-01 nucleotide sequence was introduced were of three strains in total (S1, S2 and S3), the soybean plants into which the ALT02M2-01 nucleotide sequence was introduced were of three strains in total (S4, S5 and S6), the soybean plants into which the ALT02M3-01 nucleotide sequence was introduced were of three strains in total (S7, S8 and S9), the soybean plants into which the ALT02-01 nucleotide sequence was introduced were of three strains in total (S10, S11 and S12), the control soybean plants were of two strains in total (S13 and S14), and the wild-type soybean plants were of one strain in total (CK1); and 10-15 plants were selected from each strain and tested.

The values that follow come from patent publication US12385058B2, “Herbicide tolerance protein, encoding gene thereof and use thereof” (Beijing Dabeinong Biotechnology Co., Ltd., priority 2018, dated 2025).

B1: ALT02M3-01: nucleotide sequence SEQ ID NO: 33 encoding ALT02M3, based on soybean codon usage bias (nucleic acid)
DNA: ATGGAGACTGATAACGTGGAACTCGCCCAATCTAAGAGAAAGGTGGTGCTGGCTGAACAAGGGTCATTTTACATAGGGGGTAGGACTGTTACTGGTCCTGGCAAGTTTGATCCATCCAAACCTGTGATACGAGCCAGTAACGAAGGAGCAACATTCTATATTAACCAAATGTATGTTAACTTCCAGGCCCCAGTGAGACCTAGGGGACTTCCATTGGTTTTCTGGCATGGAGGTGGCTTGACTGGTCACATCTGGGAGTCTACACCTGACGGCAGACCCGGGTTTCAAACCCTCTTCGTTCAGGATAGGCATACCGTGTACACTATTGACCAACCTGGGAGAGGAAGGGGTAACATCCCAACTTTTAACGGACCTTTCGGACAGTTGGAGGAAGAGAGTATTGTTAACACTGTGACAGCCAATGTATCAAAGGAACGAGCCTGGGTGAGAGATAGGCTTGGCCCTGCTCCCGGGCAATTTTTCGAGAACTCTCAGTTTCCTAGAGGCTATGAAGACAATTACTTTAAGGAGATGGGATTCAGCCCATCTATATCCAGTGATGAAATTGTTGACGCTGTTGTGAAACTCGTGACCCATATTGGTCCTTGTGTTCTGGTGACTCACTCAGCATCCGGCGTTCTTGGGATGAGAGTGGCTACACACGCAAAGAATGTTAGGGGAATTGTGGCCTATGAACCAGCTACCTCAATCTTCCCCAAGGGAAAAGTTCCAGAGATACCACCTCTCGCTGATAAGAAAAGCCAAATCTTTCCCCCATTCGAAATACAGGAGTCTTACTTTAAGAAACTTGCCAAGATTCCAATCCAATTTGTTTTCGGAGATAACATCCCCAAGAATCCAAAATCAGCATATTGGTTCCTGGACTGGTGGAGAGTGACAAGATACGCACATAGTCTCAGCCTGGAGGCCATAAACAAATTGGGGGGACAAGCTTCCCTTTTGGATCTTCCTACTGCAGGATTGAGAGGTAATACACACTTTCCCTTCACCGATAGGAACAATGTTCAGGTGGCTTCTCTCCTGTCAGACTTTCTGGGTAAACACGGTCTGGATCAAAATGAGAGCAAACTCGCCGCCGCCCTGGAATGA
modifications: the ALT02M3-01 nucleotide sequence encoding the amino acid sequence corresponding to the herbicide tolerant protein ALT02M3 and based on the soybean codon usage bias
In the case of B1, the “herbicide tolerance compared with soybean plants into which ALT02-01 was introduced” value is given as “significantly increased tolerance to benzenesulfonic acid” and the “herbicide tolerance imparted to transgenic soybean plants” value is “impart transgenic soybean plants with the tolerance to benzenesulfonic acid”.

B2: ALT02-01: nucleotide sequence SEQ ID NO: 21 encoding ALT02, based on soybean codon usage bias (nucleic acid)
DNA: ATGGAGACTGATAACGTGGAACTCGCCCAATCTAAGAGAAAGGTGGTGCTGGCTGAACAAGGGTCATTTTACATAGGGGGTAGGACTGTTACTGGTCCTGGCAAGTTTGATCCATCCAAACCTGTGATACCCTACAGTAACGAAGGAGCAACATTCTATATTAACCAAATGTATGTTAACTTCCAGGCCCCAGTGAGACCTAGGGGACTTCCATTGGTTTTCTGGCATGGAGGTGGCTTGACTGGTCACATCTGGGAGTCTACACCTGACGGCAGACCCGGGTTTCAAACCCTCTTCGTTCAGGATAGGCATACCGTGTACACTATTGACCAACCTGGGAGAGGAAGGGGTAACATCCCAACTTTTAACGGACCTTTCGGACAGTTGGAGGAAGAGAGTATTGTTAACACTGTGACAGGAAATTCTTCAAAGGAAGGTGCCTGGGTGAGAGATAGGCTTGGCCCTGCTCCCGGGCAATTTTTCGAGAACTCTCAGTTTCCTAGAGGCTATGAAGACAATTACTTTAAGGAGATGGGATTCAGCCCATCTATATCCAGTGATGAAATTGTTGACGCTGTTGTGAAACTCGTGACCCATATTGGTCCTTGTGTTCTGGTGACTCACTCAGCATCCGGCGTTCTTGGGATGAGAGTGGCTACACACGCAAAGAATGTTAGGGGAATTGTGGCCTATGAACCAGCTACCTCAATCTTCCCCAAGGGAAAAGTTCCAGAGATACCACCTCTCGCTGATAAGAAAAGCCAAATCTTTCCCCCATTCGAAATACAGGAGTCTTACTTTAAGAAACTTGCCAAGATTCCAATCCAATTTGTTTTCGGAGATAACATCCCCAAGAATCCAAAATCAGCATATTGGTTCCTGGACTGGTGGAGAGTGACAAGATACGCACATAGTCTCAGCCTGGAGGCCATAAACAAATTGGGGGGACAAGCTTCCCTTTTGGATCTTCCTACTGCAGGATTGAGAGGTAATACACACTTTCCCTTCACCGATAGGAACAATGTTCAGGTGGCTTCTCTCCTGTCAGACTTTCTGGGTAAACACGGTCTGGATCAAAATGAGAGCAAACTCGCCGCCGCCCTGGAATGA
modifications: the ALT02-01 nucleotide sequence encoding the amino acid sequence corresponding to the ALT02 and based on the soybean codon usage bias
In the case of B2, the “herbicide tolerance imparted to transgenic soybean plants” value is “impart transgenic soybean plants with the tolerance to benzenesulfonic acid”.
